The values below come from article PMC3189933, “Acylpeptide Hydrolase Inhibition as Targeted Strategy to Induce Proteasomal Down-Regulation” (PLoS ONE, 2011).

The target of experiment [1] is Acylpeptide hydrolase from Sulfolobus solfataricus (Sulfolobus solfataricus).
Experiment [2] has the same target. The experiment can be described thus: enzyme inhibition kinetics (Lineweaver-Burk); APEHSs pre-incubated with the peptide 30 min at 80°C, 25 mM Tris-HCl pH 7.5, substrate acetyl-Leu-pNA; competitive inhibition.

Sequence of Acylpeptide hydrolase from Sulfolobus solfataricus (Sulfolobus solfataricus) (Q7LX61 entry or part of it): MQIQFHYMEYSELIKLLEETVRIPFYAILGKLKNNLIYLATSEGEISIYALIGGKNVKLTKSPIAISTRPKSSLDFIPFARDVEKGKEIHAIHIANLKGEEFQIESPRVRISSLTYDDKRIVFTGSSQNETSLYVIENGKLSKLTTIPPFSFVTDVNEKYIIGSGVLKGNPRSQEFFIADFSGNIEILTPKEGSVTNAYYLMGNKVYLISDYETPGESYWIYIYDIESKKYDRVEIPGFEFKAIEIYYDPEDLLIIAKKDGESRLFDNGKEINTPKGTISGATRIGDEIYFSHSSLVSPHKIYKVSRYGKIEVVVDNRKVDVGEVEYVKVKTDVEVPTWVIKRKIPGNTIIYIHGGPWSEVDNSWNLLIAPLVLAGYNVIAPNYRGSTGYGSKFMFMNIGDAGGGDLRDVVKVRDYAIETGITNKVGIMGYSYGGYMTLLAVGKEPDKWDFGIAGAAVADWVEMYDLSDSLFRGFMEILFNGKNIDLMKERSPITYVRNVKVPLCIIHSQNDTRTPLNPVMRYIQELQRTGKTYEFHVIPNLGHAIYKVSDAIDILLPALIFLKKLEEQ

B1: SsCEI 2 (peptide)
peptide: H-TILLEIKNINAD-NH2
The Ki is the equilibrium dissociation constant of an inhibitor or competing ligand from its target. In experiment [1], B1 showed an IC50 of inhibition of APEHSs activity (substrate Ac-Leu-pNA) of 9.8 µM. Further, in experiment [2], the Ki worked out at 1000 nM.
